Source: the NTF2 design screens of Basanta et al. (2020)

Assay: protease stability score; higher = more stable; yeast display proteolysis, trypsin and chymotrypsin;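 further: log10 excess protease needed over predicted unfolded state with 0 meaning unfolded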

Sequence | protease stability score
DEEHAESVKTLFKNLRTNNEDEVEKLVDPNARMKYGDKQVHGRDEIKHMIQRLKDELHIEMDVKRMNVHNGQADLKFDITVVRNGKPDTAKANVRVQFSNGRIHDFTVQLNK | 0.347
DEEHAHEMLKVVKVLIEGDPDQAHDMVDPNARFKVGDQTFSGRESFRNHVRHTNEESSLHLKSLDAQDHGDKVTIKVEFVRDTNGNPRHMRLEVRARLHNGRVTHAEFEDRK | -0.001
DEEHAKRINENIKHGNWDELVKQFDENAKLVIGDKEYHGREEIKKAMDLFKKHADHFEIKSYDNQGEKMSATYVIQVNGKRATVKMRVTFQGDKVKRYELHATSEHNERILKEAIE | 1.12
DEEHARELVENFKRNNWQEFEKMADKDVRAHVGDWNVHGRETFSRMMKHLVDQIDHISVDSVDVDEDTVEIHFSFDINGQDVTAVLRVELHNGKIKSMELDARDENARDVLRKVWR | 0.099
DEEHARTFMEEWQKAVQKGDHKRAQEIYKPNVEWVAGDKQTQGTDVVREMLEKAQKMGVEFQVRRAEVEGNKVRFQYDVRHGNETVTFHVEVTVQGGKIDRVQVKFDEKAQKVQKEG | 1.07
DEEHDEKVARSVARNITHGNEKSLRKQLPEDARVVYGDKTYHGRERAANVAKEFDERADHNRVDDLRVQNGRAELIFIVNVDGKNVRAVMIVDVHNGKAKLVMIKWTNPDDQRDLEK | 0.159
DEEHELDMARKMFEAVKQGDEEEVQRNAPPDVRMEIGDRTYHGREQVRKAAKEFQKRVDHMQLDSVKLHNGDVHAKVILNINGKNNDVVVQIHIDNGRITELRFKTS | -0.06
DEEHIEEVQRRFISAFKDGDEDQMQRQMDPNVKLVIGDTTIHGRESAAKSLANIVRKVDHVDVESYEVRGNQASMIMRVEINGKDDRLDFQIEIHNGHIKRLEIQSS | 0.692
DEEHITNVVKKMVNALRTGDPDTARELADPNVTAEYGDKEIRGREEVSKMVKLLHKQADHVTVKDVKVTNGHMEVRRRQHVNGKEIQMTLEARVHNGKIQEMRVHKK | -0.305
DEEHKAKDAARRMQEVARRNDPTQAKEMIPPDAKVRVGDKDVHGREQVVTLFKKIADQADHLDIQVSSVDIQGDRAVVVFNLRYTINGQDRRNRVVVIFRDHNGHVMILEVQEQ | 0.514
DEEHLKRVNETVMDIVKNNDPNQLREMVDPNVKVDVGDQRVHGRDKAAEVVKEWEKHVDRVTIRHVSVHNGRVRVVFQLESNGKTKDVQILFVYENGRIHSMRFTSQ | 0.933
DEEHLLSRLAKEFWEDWKQGDPNKASKQADKDVHVQIGDKEYHGREHLERLFKEVKKDVDHNTSRITDLKVDENHIDLKVSFSMNVNGQNITMVVDVKMRIVNGHAKAVDIKYK | 1.37
DEEHMEHFREVMEQNDPDELNELVDPNARLVIGDKKYHGRDTVVKLIKRFWSKADHNRLRSLTIRNGRASWRMQATVNGQRLDFTVEAVFHNGRLKTMRFKFRDRSQVDHFRRLLQ | 1.74
DEEHMQELAEELVKVMKRGDFKRYLDLASENAEVTYGEKSVRGREDLHKMQEELEKKVDHIHMKDFRVSGNQIHLFFVVHHDGRSREVVVTIEYHNGRITSVTYDEK | -0.075
DEEHNERVAEEINRIMRDGDEERFEEMVDEDVKLQVGDKTWSGREEARKWQHEMWNSVDHVHIQDFEVSGDEIVIHFQLEHNGRREQAVVIVRFSNGRIKMMTIETQ | 1.41
DEEHNKEVMENIITGNSDEMRKMVDPNAQLEIGDKRYHGRDQIDTFEHLMRDRVDNLEVKRYDLQGDKVHVDYVFVVNGKHARVRVSFSVKNGRFTQIRIEVTDEEVEKILREVQK | 1.17
DEEHNQRLAERVAKVVQSGDEEEFEKQADPNVKVVYGDKTYHGNSEAMNAIKQIRKQADTVSVQSVDVHGDTARIQMRFDVNGKDRIVKVTVQVDNGRVVEVRFHET | 1.12
DEEHQHSLARTLATALRTGDPEKMKDLADKDVKVVVGDKHIKGRKDAKKWAKDWRDRYDHAQVDDVNVQGENVRIVMNVEVDGHNVVVVMTAIIDGDQVKNVKVTARNEEQEKKMKK | -0.268
DEEHQKEVLEHMTTNDPQFLRDLADEDVRVNVGDKEVKGREEFRRVLEHELRRIDRIQVKRVHVEGEKFKIDRKVTFDGKTLDYEVNFTIHNGRLKQMRVQARSEDLEEKMKELHG | 0.36
DEEHQKHFEQFVKAMETGDEERLAQLVDKDVEISYGDKTIHGREELRKRVREIKEELRLTMDFKRITVRGDKVQANFKASMNHNGQPVSFKAHVTVTAHNGTIKSVSLSNHK | 1.1
DEEHQKIAKEALEQIQTGDEDEIKRQFDPNAKLQVGDQSVHGRETAAKFVRDRRRQMRIHLDDVDVKAKNGHVRLMMDVEVDHNGHPTKHRQVMIVKIHNGQIKKMTVNERD | -0.028
DEEHQKKMAEDFVKALERGDKDQFHSLFDENAKMQYGDKTVHGREDVKRWVEHVKERVDHLKVDKIEVSGNKVVLKMVINVDGQRLDMVITIHLHNGHIQSAEARVTDPDQERKANS | 1.26
DEEHRAKTAQDDIRRINQNGDPDQMHRLADKDARIQIGDTFLHGREQIKEQMERDNKKFDHQQVEIKKVEVRGDKVRIVAEIKADFNGDNKTTRFVIYLTVKNGRVKMKKVTDG | -0.194
DEEHREDSIRKVFEVLQTGDPKRFRENVDKNAKARVGDREVRGTKAADTFAHNIVKRADHVRIRRVHVHNGVVVVTEQQTVNGKEVIMVVFMEMNNGKMKLVEVNPEQLKELEG | -0.394
DEEHVDQLLRKIFEILRNGDEKKLQDNFDPNVKATYGDRDITGMHSIAKTLAELFQRADHVNLRSMEVNGDKMRMQVSVQVDGRRATLEVNMRQHNGKVKELNLDPRRIKQFES | -0.169

Sequence | protease stability score
DEEHVDRVVKVLQHNDEEQFKRNAPPDARINIGDKQYRGREDAVEALSELWHRADHIRLHDITVRGNKIEMDMVFVVNGQHVRVVLDVEMRNGKVEQIDAHVTDEKDEENLQRAMD | 0.393
DEEHVKKIIKKVADDLQRGDEDNLKHLMDKDVRVEIGDKEVRGKDEAAKELAKFLSRADHFQVDHVDVKGNNARIHVLVNINGRERRVTLILTMHNGRLKNVRFDPENEQTLRN | 1.18
DEEHVKRMATTFAKQMRHNNPDDIMKQMDKNVQLRYGDKEVEGDENVRRRLKTLHDQVDHVEVKDYTAHGNSIRIVVRLEVNGKTANFVLIVIVENGRVLKANIDPKALDSYEK | 0.253
DEEHVRRQAKQVNDILTTGDENKMLEMAPPDAKLEYGDRHVTGREHIRRMVHEQKKQIDDFKIDTYSVSGNEVRVRFVARVNGQEADFEITIVFKNGRIHEIKVDPDALQQMRK | 0.256
DEEHWRKIAEDFMHALRTGDPRTLRKLMDEDVQYVYGDQRVTGHEEAANRFHELRQKVDHVTVKHIEVQGNKVVIDVVMQVNGKEARMTIVIVFENGRAKVLTFDPEQIKKLEG | 1.23
DEEIEDMIRKLIHAIRSGDEKKIKDNFDKDVDVDVGDKTLHGREHLTKRIAETRRQLKVRITSLHVHVRGEQVRVQVTMERTVNGRPQRHHNVFELQVHNGRVKRVSVKSDG | 1.08
DEEIERRVENRLKALEEGDEDKVRDNVDPNVRIHVGDKVWHGREHARDFARQQKEHARRKVDEYSVRVNNGKLSVKQRFKEDRNGQPREDHQQYSADIHNGTLKDMTVTKDG | 0.608
DEEIKRHIKEMMEAISHGDPDQLRRLFDPNVDIRVGDKEITGMEEYLHQLKHKLDSAEFEYKHYEVKVRNGSVRARYEYIVRINGRPNSVTAEVEIKMTNGKAKHAVYRFSDEDKKRLEG | 0.698
DEEILNKAVEALRVEHQGNRKDLKRMFDPNAKRRVGDKTITGMDNLLKELSDKRRHLNVDVKIDSLHAEGNRVELDVSQRQNTNGQPSEFRAKIVITVKNGRMVDVTIHRTK | -0.016
DEEINKQIRTMIESRTHGDEEDELRNADPNAKFRIGDKDYHGKEELKKWVKTQHDQAHVEFIIRSVRVHGNKVSMDMQVVLNVNGRPETIDASMSAEVDNGRFKRIDIHLDPDRVRTALQ | 1.16
DEEINTIAEEFMKAFQHNNPDKMRNLADENAQFRIGDDKIHGMETYAKEVKKENREQRVEFQIKDLKVQGNTVDMDVSFEVERNGQPHRFEVKLHFNFHNGKLKTLQWNTDG | -0.078
DEEIQKLIDDALKAYERGNEDQQAELFDENARVRIGDQTLHGREDLKEHLKRVKDHINFRIESYDVKVHNGRMHATLTLVMQIDGQPDQWSVHLRADVNNGRIKHFEMDMDPEKQRELTK | -0.044
DEEIRDEIKKYFKALETGDPDKMREMFDPNAKVQVGDKVYHGMSEAARHWVRRAEKIRIEIQDLNIDVHGEDVVVEQVLVEDKNGRPQRKTERLTMDVEDGRVKRAHRHSVK | 0.186
DEEIVELIKKVLEAIEEGDETRLKKLFDPNAEFEIGDKKLHGMENAAKEWRKQRQQMEIRIKSVHFEVRGERVIVKFKVEYDHNGRPSTMTVHIVALAHNGKMTYFSQKVTQ | 0.826
DEEIVKLLKRLIKAEKNGNPDEIRKNLDPNVRYVVGERTITGREEFVRDQQRRDDQMRVEFQSVQLRQKGDKAVIHQQAVYRHNGRPKTNHQHISIQAKNGKVKDQKVEVKE | 0.069
DEEIVKLVEEQARAEKTNDDKRLNELFDKDAKVDVGDKSYHGTEELHKLVHRTMHRMRFDLRTYRIDHEGDRAVMNYNLVFDINGRPDHYHVIFRAHMHNGRIKHQSVSVDPEQKKRFDS | -0.023
DEEKAKHRVEEFTQLLQENDWDHLANMADENARVQVGDQVYDGRKDIERWAKQVKERVDNVTVKEMSVSGNKMNANVEFQINGVTVRATIEIDFHNGKAKHMRVDPDVVRKQSR | 0.727
DEEKAQRLMKTLMDYIKNGNADKAQQMLKEGGKVKFGDEEVEGPEEMKKYVKKFKDKGIETHYKEEKFEGNTATVHTEAKLGNAKVEFEAHYEAKGDKVVRAEVKYDEDQYEKFKKS | -0.286
DEEKATEQAKEAIKALHTGDPRTMVEMLDKDARLRVGDNEYKGRDKVRNAMEEFTKRADSVRVDSVSVHGDKAVIHFKVRYNGQTIEVVLSLSVTNGRIVKAELDYRDEDTLRRLQK | 1.11
DEEKDEDFARKVLQAVQTGDHDKIKKMADPNASATIGDKTWHGREQLSEAIRRWKEEADRVDVKSVSVQGDRASADMKVQHNGKMTDVRVFVEASNGRLKKLEIDTK | 1.16
DEEKDEDVARQVAHAAATGDTKRLVELMRDNVRFQIGDKTFSGRENLSKAMERIDKHVDHLEVKSIEAHGDTVRADVTMTVNGKTHVVKIEAVVHNGHARELVLHDR | 0.06
DEEKDEKIRKWQTNVKHGNEDEIRKNADKDAHVHVGDKQYHGHHRIRKLMTNERRKMRVDQKIETVSANNGRATVIVSATFDVNGQPLTDRENVVLIMHNGKIQEVRVDMDPDLHRQLQS | -0.51
DEEKDQKLATDLSDVIKTGDKEKMVKMADPNARIIVGDRVYHGREVILRWVRTLRERVDRIQIDSYDARDGKVRIIFQVRFDGRTTKIDLVVQYDNGHAKKIEVREK | 0.075
DEEKEATKQVSEWIENMKSGDEDRLRELADKNAKVRYGDEEVHGMDQAAERWRNQRQKYDSLEVEVRDLKNHNGQVVVDQVERFNHNGKTDQRRVIITMERRPNHFVVQEVVQP | -0.331
DEEKEDKLLLKFARVVLQNNPEDLTRLMDPNAHLEVGDQTWHGREQVSDVLSKFAKRVDEVEVEDYDKRGNDLKVVMTLNINGKNIKVNLTFVVSNGRVTNVRLDPEAQKKIEK | 0.37
